This is an account of results in article PMC1780049, “Functional analysis of Arabidopsis WRKY25 transcription factor in plant defense against Pseudomonas syringae”.

For this data set, the target named is T1, WRKY25 (Arabidopsis, UniProt O22921 1-393).
T1 sequence: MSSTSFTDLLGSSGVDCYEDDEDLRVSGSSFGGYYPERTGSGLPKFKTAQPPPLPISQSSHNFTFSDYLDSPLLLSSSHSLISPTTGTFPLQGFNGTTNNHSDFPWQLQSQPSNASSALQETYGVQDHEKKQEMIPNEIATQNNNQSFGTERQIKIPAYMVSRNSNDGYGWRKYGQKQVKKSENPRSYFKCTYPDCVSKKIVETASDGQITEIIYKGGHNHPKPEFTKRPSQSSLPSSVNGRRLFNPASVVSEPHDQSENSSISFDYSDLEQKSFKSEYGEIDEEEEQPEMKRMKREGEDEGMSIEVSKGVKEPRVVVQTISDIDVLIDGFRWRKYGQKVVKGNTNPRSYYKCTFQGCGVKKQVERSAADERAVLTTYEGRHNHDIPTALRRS
The data set is described as follows: EMSA; poly(dIdC) 5 ug; 12 ul nuclear extraction buffer (25 mM HEPES/KOH pH 7.5, 40 mM KCl, 0.1 mM EDTA, 10% glycerol, 1 mM DTT, PMSF), 5 ug poly(dIdC), 1 ug protein, 2 ng labelled dsDNA; room temperature 30 min; 10% PAGE in 0.5x TBE at 4 C. The settings on record: protein: recombinant, tags: His-tagged, pET32a (EcoRI/XhoI) vector fusion, (Klenow labelled, ~10^5 cpm/ng).

Positions count from the first letter of the chain named.

B1: Pchn5 (dsDNA)
DNA 1: GGAACTTGACCATCCGTTGACCGGGCTGCAGGAATTCG
DNA 2: CGAATTCCTGCAGCCCGGTCAACGGATGGTCAAGTTCC
On to B1, for which the binding result is reported as “binds”.

B2: mPchn5 (dsDNA)
DNA 1: B1 DNA 1 with C10A, C21A
DNA 2: B1 DNA 2 with G18T, G29T
As to B2, the binding result is “no binding”.
